Source: article PMC10786891, “Massively parallel profiling of RNA-targeting CRISPR-Cas13d”

T1: EsCas13d, nuclease-dead (Eubacterium siraeum, UniProt B0MS50, R295A;H300A;R849A;H854A)
T1 sequence: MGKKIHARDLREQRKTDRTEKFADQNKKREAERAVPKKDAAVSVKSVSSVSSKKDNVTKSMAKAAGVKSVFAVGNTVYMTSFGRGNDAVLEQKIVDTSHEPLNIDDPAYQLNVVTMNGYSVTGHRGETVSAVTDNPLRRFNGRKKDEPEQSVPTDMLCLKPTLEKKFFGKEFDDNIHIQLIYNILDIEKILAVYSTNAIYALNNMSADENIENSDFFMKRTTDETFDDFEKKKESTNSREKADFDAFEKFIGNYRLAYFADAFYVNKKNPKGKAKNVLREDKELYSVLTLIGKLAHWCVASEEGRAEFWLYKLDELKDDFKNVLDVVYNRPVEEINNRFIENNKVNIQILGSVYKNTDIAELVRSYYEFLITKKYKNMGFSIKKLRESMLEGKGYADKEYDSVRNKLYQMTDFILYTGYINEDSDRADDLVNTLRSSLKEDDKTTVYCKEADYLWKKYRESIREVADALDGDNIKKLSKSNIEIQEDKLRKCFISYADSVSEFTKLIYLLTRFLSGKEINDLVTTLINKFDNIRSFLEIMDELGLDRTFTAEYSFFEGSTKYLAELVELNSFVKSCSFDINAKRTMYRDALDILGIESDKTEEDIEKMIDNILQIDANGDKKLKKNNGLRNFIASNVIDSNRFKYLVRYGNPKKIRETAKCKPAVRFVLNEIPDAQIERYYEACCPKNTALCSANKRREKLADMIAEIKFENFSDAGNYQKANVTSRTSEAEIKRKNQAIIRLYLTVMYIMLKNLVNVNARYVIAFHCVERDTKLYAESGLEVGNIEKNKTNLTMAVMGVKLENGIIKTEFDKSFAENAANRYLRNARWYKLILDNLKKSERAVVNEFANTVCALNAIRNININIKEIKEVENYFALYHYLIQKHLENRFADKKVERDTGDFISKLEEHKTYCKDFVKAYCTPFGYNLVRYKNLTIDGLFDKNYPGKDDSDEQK


biological target: T1, EsCas13d, nuclease-dead; assay: crRNA (strand 1, pre-loaded); Mg2+; 40 mM Tris-HCl pH 7.5, 150 mM NaCl, 6 mM MgCl2, 1 mM DTT, 0.1% Tween-20, 0.2 mg/ml BSA; 25 C; 10 min per concentration, then washed; conditions: tags: His6-TwinStrep-SUMO cleaved; N-terminal SNAP kept (SNAP-Surface 488); label: 3' end held by stalled T7 RNA polymerase

Binder | Kd
target 1 MT 5'PFS GAC 3'PFS AGU (mixed) RNA 1: CACCCGUGCAAAAAUGCAGGGGUCUAAAACUGAGCGGAUAACCUCUCUAUGG RNA 2: GGGAAUGGAUCCACAUCUACGAAUUCGACCCAUAGAGAGGUUAUCCGCUCAAGUAGAUCGGAAGAGCACACGU | 35.5 ± 10.5 nM
target 1 MT 5'PFS CCU 3'PFS UAG (mixed) RNA 1: CACCCGUGCAAAAAUGCAGGGGUCUAAAACUGAGCGGAUAACCUCUCUAUGG RNA 2: GGGAAUGGAUCCACAUCUACGAAUUCCCUCCAUAGAGAGGUUAUCCGCUCAUAGAGAUCGGAAGAGCACACGU | 28 ± 11 nM
target 1 MT 5'PFS GGC 3'PFS UAU (mixed) RNA 1: CACCCGUGCAAAAAUGCAGGGGUCUAAAACUGAGCGGAUAACCUCUCUAUGG RNA 2: GGGAAUGGAUCCACAUCUACGAAUUCGGCCCAUAGAGAGGUUAUCCGCUCAUAUAGAUCGGAAGAGCACACGU | 16 ± 4 nM
target 1 MT 5'PFS GUA 3'PFS CGC (mixed) RNA 1: CACCCGUGCAAAAAUGCAGGGGUCUAAAACUGAGCGGAUAACCUCUCUAUGG RNA 2: GGGAAUGGAUCCACAUCUACGAAUUCGUACCAUAGAGAGGUUAUCCGCUCACGCAGAUCGGAAGAGCACACGU | 11.2 ± 1.15 nM
target 1 MT 5'PFS CCU 3'PFS UAC (mixed) RNA 1: CACCCGUGCAAAAAUGCAGGGGUCUAAAACUGAGCGGAUAACCUCUCUAUGG RNA 2: GGGAAUGGAUCCACAUCUACGAAUUCCCUCCAUAGAGAGGUUAUCCGCUCAUACAGAUCGGAAGAGCACACGU | 13.4 ± 2.7 nM
target 1 MT 5'PFS GGG 3'PFS AAC (mixed) RNA 1: CACCCGUGCAAAAAUGCAGGGGUCUAAAACUGAGCGGAUAACCUCUCUAUGG RNA 2: GGGAAUGGAUCCACAUCUACGAAUUCGGGCCAUAGAGAGGUUAUCCGCUCAAACAGAUCGGAAGAGCACACGU | 35.5 ± 8.5 nM
target 1 MT 5'PFS CUC 3'PFS UCG (mixed) RNA 1: CACCCGUGCAAAAAUGCAGGGGUCUAAAACUGAGCGGAUAACCUCUCUAUGG RNA 2: GGGAAUGGAUCCACAUCUACGAAUUCCUCCCAUAGAGAGGUUAUCCGCUCAUCGAGAUCGGAAGAGCACACGU | ~85 nM
target 1 MT 5'PFS GUA 3'PFS AGA (mixed) RNA 1: CACCCGUGCAAAAAUGCAGGGGUCUAAAACUGAGCGGAUAACCUCUCUAUGG RNA 2: GGGAAUGGAUCCACAUCUACGAAUUCGUACCAUAGAGAGGUUAUCCGCUCAAGAAGAUCGGAAGAGCACACGU | 12.7 ± 0.8 nM
target 1 MT 5'PFS GUA 3'PFS AGG (mixed) RNA 1: CACCCGUGCAAAAAUGCAGGGGUCUAAAACUGAGCGGAUAACCUCUCUAUGG RNA 2: GGGAAUGGAUCCACAUCUACGAAUUCGUACCAUAGAGAGGUUAUCCGCUCAAGGAGAUCGGAAGAGCACACGU | 22.9 ± 1.4 nM
target 1 MT 5'PFS CAA 3'PFS AGU (mixed) RNA 1: CACCCGUGCAAAAAUGCAGGGGUCUAAAACUGAGCGGAUAACCUCUCUAUGG RNA 2: GGGAAUGGAUCCACAUCUACGAAUUCCAACCAUAGAGAGGUUAUCCGCUCAAGUAGAUCGGAAGAGCACACGU | ~52 nM
target 1 MT 5'PFS GUA 3'PFS CGU (mixed) RNA 1: CACCCGUGCAAAAAUGCAGGGGUCUAAAACUGAGCGGAUAACCUCUCUAUGG RNA 2: GGGAAUGGAUCCACAUCUACGAAUUCGUACCAUAGAGAGGUUAUCCGCUCACGUAGAUCGGAAGAGCACACGU | 5.66 ± 0.48 nM
target 1 MT 5'PFS GGC 3'PFS UAC (mixed) RNA 1: CACCCGUGCAAAAAUGCAGGGGUCUAAAACUGAGCGGAUAACCUCUCUAUGG RNA 2: GGGAAUGGAUCCACAUCUACGAAUUCGGCCCAUAGAGAGGUUAUCCGCUCAUACAGAUCGGAAGAGCACACGU | 19 ± 5 nM
target 1 MT 5'PFS CUC 3'PFS UCA (mixed) RNA 1: CACCCGUGCAAAAAUGCAGGGGUCUAAAACUGAGCGGAUAACCUCUCUAUGG RNA 2: GGGAAUGGAUCCACAUCUACGAAUUCCUCCCAUAGAGAGGUUAUCCGCUCAUCAAGAUCGGAAGAGCACACGU | ~26 nM
target 1 MT 5'PFS CUU 3'PFS ACA (mixed) RNA 1: CACCCGUGCAAAAAUGCAGGGGUCUAAAACUGAGCGGAUAACCUCUCUAUGG RNA 2: GGGAAUGGAUCCACAUCUACGAAUUCCUUCCAUAGAGAGGUUAUCCGCUCAACAAGAUCGGAAGAGCACACGU | ~65.5 nM
target 1 MT 5'PFS GUA 3'PFS CGG (mixed) RNA 1: CACCCGUGCAAAAAUGCAGGGGUCUAAAACUGAGCGGAUAACCUCUCUAUGG RNA 2: GGGAAUGGAUCCACAUCUACGAAUUCGUACCAUAGAGAGGUUAUCCGCUCACGGAGAUCGGAAGAGCACACGU | 15.2 ± 1.15 nM
target 1 MT 5'PFS GAA 3'PFS AUC (mixed) RNA 1: CACCCGUGCAAAAAUGCAGGGGUCUAAAACUGAGCGGAUAACCUCUCUAUGG RNA 2: GGGAAUGGAUCCACAUCUACGAAUUCGAACCAUAGAGAGGUUAUCCGCUCAAUCAGAUCGGAAGAGCACACGU | 43 ± 15 nM
target 1 MT 5'PFS UUG 3'PFS CAU (mixed) RNA 1: CACCCGUGCAAAAAUGCAGGGGUCUAAAACUGAGCGGAUAACCUCUCUAUGG RNA 2: GGGAAUGGAUCCACAUCUACGAAUUCUUGCCAUAGAGAGGUUAUCCGCUCACAUAGAUCGGAAGAGCACACGU | 41 ± 13.5 nM
target 1 complement block 6-12 (mixed) RNA 1: CACCCGUGCAAAAAUGCAGGGGUCUAAAACUGAGCGGAUAACCUCUCUAUGG RNA 2: GGGAAUGGAUCCACAUCUACGAAUUCGUACCAUAGAGAGCAAUAGGGCUCACCGAGAUCGGAAGAGCACACGU | 16.7 ± 1 nM
target 1 MT 5'PFS UGU 3'PFS CGA (mixed) RNA 1: CACCCGUGCAAAAAUGCAGGGGUCUAAAACUGAGCGGAUAACCUCUCUAUGG RNA 2: GGGAAUGGAUCCACAUCUACGAAUUCUGUCCAUAGAGAGGUUAUCCGCUCACGAAGAUCGGAAGAGCACACGU | 60 ± 28.5 nM
target 1 MT 5'PFS GGC 3'PFS UAA (mixed) RNA 1: CACCCGUGCAAAAAUGCAGGGGUCUAAAACUGAGCGGAUAACCUCUCUAUGG RNA 2: GGGAAUGGAUCCACAUCUACGAAUUCGGCCCAUAGAGAGGUUAUCCGCUCAUAAAGAUCGGAAGAGCACACGU | 20.9 ± 3.75 nM
target 1 G15C,A16C (mixed) RNA 1: CACCCGUGCAAAAAUGCAGGGGUCUAAAACUGAGCGGAUAACCUCUCUAUGG RNA 2: GGGAAUGGAUCCACAUCUACGAAUUCGUACCAUAGCCAGGUUAUCCGCUCACCGAGAUCGGAAGAGCACACGU | ~90 nM
target 1 MT 5'PFS GUA 3'PFS AGU (mixed) RNA 1: CACCCGUGCAAAAAUGCAGGGGUCUAAAACUGAGCGGAUAACCUCUCUAUGG RNA 2: GGGAAUGGAUCCACAUCUACGAAUUCGUACCAUAGAGAGGUUAUCCGCUCAAGUAGAUCGGAAGAGCACACGU | 9.9 ± 0.8 nM
target 1 MT 5'PFS CCU 3'PFS UAU (mixed) RNA 1: CACCCGUGCAAAAAUGCAGGGGUCUAAAACUGAGCGGAUAACCUCUCUAUGG RNA 2: GGGAAUGGAUCCACAUCUACGAAUUCCCUCCAUAGAGAGGUUAUCCGCUCAUAUAGAUCGGAAGAGCACACGU | ~15 nM
target 1 MT 5'PFS GUA 3'PFS CGA (mixed) RNA 1: CACCCGUGCAAAAAUGCAGGGGUCUAAAACUGAGCGGAUAACCUCUCUAUGG RNA 2: GGGAAUGGAUCCACAUCUACGAAUUCGUACCAUAGAGAGGUUAUCCGCUCACGAAGAUCGGAAGAGCACACGU | 17.8 ± 2.55 nM
target 1 MT 5'PFS UUG 3'PFS CAC (mixed) RNA 1: CACCCGUGCAAAAAUGCAGGGGUCUAAAACUGAGCGGAUAACCUCUCUAUGG RNA 2: GGGAAUGGAUCCACAUCUACGAAUUCUUGCCAUAGAGAGGUUAUCCGCUCACACAGAUCGGAAGAGCACACGU | ~85 nM
target 1 MT 5'PFS GAA 3'PFS AUU (mixed) RNA 1: CACCCGUGCAAAAAUGCAGGGGUCUAAAACUGAGCGGAUAACCUCUCUAUGG RNA 2: GGGAAUGGAUCCACAUCUACGAAUUCGAACCAUAGAGAGGUUAUCCGCUCAAUUAGAUCGGAAGAGCACACGU | 24.5 ± 8.5 nM
target 1 MT 5'PFS GGC 3'PFS UAG (mixed) RNA 1: CACCCGUGCAAAAAUGCAGGGGUCUAAAACUGAGCGGAUAACCUCUCUAUGG RNA 2: GGGAAUGGAUCCACAUCUACGAAUUCGGCCCAUAGAGAGGUUAUCCGCUCAUAGAGAUCGGAAGAGCACACGU | 13.4 ± 1.8 nM
target 1 MT 5'PFS GUA 3'PFS AGC (mixed) RNA 1: CACCCGUGCAAAAAUGCAGGGGUCUAAAACUGAGCGGAUAACCUCUCUAUGG RNA 2: GGGAAUGGAUCCACAUCUACGAAUUCGUACCAUAGAGAGGUUAUCCGCUCAAGCAGAUCGGAAGAGCACACGU | 6.27 ± 0.515 nM
